According to publication PMC9482650, “Quantitative fragmentomics allow affinity mapping of interactomes” (Nature Communications, 2022):

T1: APBA1_2, Q02410
T1 sequence (Q02410 742-832, limits assumed, looked up): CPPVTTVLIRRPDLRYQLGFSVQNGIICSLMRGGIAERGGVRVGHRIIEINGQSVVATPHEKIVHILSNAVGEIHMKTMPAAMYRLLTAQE

T2: NHERF3_1, Q5T2W1
T2 sequence (Q5T2W1 4-100, limits assumed, looked up): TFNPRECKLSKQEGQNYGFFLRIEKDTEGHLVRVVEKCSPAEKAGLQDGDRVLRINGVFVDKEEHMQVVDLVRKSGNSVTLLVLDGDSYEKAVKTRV

T3: TIAM2, Q8IVF5
T3 sequence (Q8IVF5 885-986, limits assumed, looked up): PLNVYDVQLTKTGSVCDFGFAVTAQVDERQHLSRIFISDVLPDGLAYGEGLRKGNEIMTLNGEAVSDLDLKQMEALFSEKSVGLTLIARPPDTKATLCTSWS

T4: GRIP1_5, Q9Y3R0
T4 sequence (Q9Y3R0 568-668, limits assumed, looked up): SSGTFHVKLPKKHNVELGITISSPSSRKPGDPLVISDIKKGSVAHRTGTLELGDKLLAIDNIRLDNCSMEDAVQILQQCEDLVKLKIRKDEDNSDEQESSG

T5: RHPN1, Q8TCX5
T5 sequence (Q8TCX5 508-602, limits assumed, looked up): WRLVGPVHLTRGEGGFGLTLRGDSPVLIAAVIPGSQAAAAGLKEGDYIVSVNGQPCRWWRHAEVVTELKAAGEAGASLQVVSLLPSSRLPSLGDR

T6: MPP2, Q14168
T6 sequence (Q14168 180-250, limits assumed, looked up): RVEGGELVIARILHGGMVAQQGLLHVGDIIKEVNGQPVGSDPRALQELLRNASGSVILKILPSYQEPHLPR

T7: DLG3_1, Q92796
T7 sequence (Q92796 125-227, limits assumed, looked up): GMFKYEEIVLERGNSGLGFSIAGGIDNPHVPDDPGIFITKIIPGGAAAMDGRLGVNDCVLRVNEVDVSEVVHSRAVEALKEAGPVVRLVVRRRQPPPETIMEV

T8: SYNJ2BP, P57105
T8 sequence (P57105 8-110, limits assumed, looked up): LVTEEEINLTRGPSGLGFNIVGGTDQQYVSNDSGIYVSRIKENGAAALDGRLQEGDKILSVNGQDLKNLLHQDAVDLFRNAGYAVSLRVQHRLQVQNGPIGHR

T9: LNX2_2, Q8N448
T9 sequence (Q8N448 334-432, limits assumed, looked up): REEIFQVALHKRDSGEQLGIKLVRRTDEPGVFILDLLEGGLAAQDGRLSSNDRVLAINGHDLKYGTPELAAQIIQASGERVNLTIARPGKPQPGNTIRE

T10: GRIP1_3, Q9Y3R0
T10 sequence (Q9Y3R0 247-346, limits assumed, looked up): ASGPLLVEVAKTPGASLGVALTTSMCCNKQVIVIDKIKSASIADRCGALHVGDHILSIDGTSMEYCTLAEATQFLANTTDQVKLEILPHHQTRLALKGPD

T11: DLG3_3, Q92796
T11 sequence (Q92796 374-475, limits assumed, looked up): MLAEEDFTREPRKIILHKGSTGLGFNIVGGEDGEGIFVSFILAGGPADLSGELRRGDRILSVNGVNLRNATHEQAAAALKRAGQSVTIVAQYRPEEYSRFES

T12: APBA1_1, Q02410
T12 sequence (Q02410 651-752, limits assumed, looked up): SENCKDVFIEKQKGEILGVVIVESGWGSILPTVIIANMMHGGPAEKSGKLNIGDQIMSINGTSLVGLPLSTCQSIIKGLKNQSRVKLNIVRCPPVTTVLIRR


How the values were obtained:
Experiment in all cases: holdup assay
Design in all cases: key: below the threshold = too weak to quantify, mostly under pKd 3.1 to 4
Conditions in all cases: plain residues with an end cap or a label only (N-terminal biotin on a linker: ado-ado)
GRIP2_4, Q9C0E4 = biological target: GRIP2_4, Q9C0E4
Chain of GRIP2_4, Q9C0E4 (Q9C0E4 446-548): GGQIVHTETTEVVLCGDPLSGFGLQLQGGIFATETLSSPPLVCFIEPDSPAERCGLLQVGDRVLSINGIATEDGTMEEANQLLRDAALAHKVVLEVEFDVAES

GRIP2_5, Q9C0E4 = biological target: GRIP2_5, Q9C0E4
Chain of GRIP2_5, Q9C0E4 (Q9C0E4 544-642): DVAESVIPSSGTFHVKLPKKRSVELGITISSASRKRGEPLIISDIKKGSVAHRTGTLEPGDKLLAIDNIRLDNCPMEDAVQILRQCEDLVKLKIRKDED

APBA1_2, Q02410 = biological target: T1, APBA1_2, Q02410
NHERF3_1, Q5T2W1 = biological target: T2, NHERF3_1, Q5T2W1
TIAM2, Q8IVF5 = biological target: T3, TIAM2, Q8IVF5
PDLIM1, O00151 = biological target: PDLIM1, O00151
Chain of PDLIM1, O00151 (O00151 1-87): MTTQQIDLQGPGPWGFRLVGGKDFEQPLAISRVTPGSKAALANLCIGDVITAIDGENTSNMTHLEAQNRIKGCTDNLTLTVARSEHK

GRID2IP_2, A4D2P6 = biological target: GRID2IP_2, A4D2P6
Chain of GRID2IP_2, A4D2P6 (A4D2P6 272-370): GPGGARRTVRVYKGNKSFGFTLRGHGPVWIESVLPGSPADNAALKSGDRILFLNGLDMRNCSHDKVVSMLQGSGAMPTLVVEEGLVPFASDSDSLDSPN

DLG4_1, P78352 = biological target: DLG4_1, P78352
Chain of DLG4_1, P78352 (P78352 62-152): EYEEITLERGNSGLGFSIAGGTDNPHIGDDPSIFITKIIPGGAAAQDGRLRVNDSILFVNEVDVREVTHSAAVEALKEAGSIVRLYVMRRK

GRIP1_5, Q9Y3R0 = biological target: T4, GRIP1_5, Q9Y3R0
FRMPD2_3, Q68DX3 = biological target: FRMPD2_3, Q68DX3
Chain of FRMPD2_3, Q68DX3 (Q68DX3 1073-1166): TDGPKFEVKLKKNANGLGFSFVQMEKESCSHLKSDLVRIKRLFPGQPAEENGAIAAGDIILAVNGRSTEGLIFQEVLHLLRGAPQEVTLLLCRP

RHPN1, Q8TCX5 = biological target: T5, RHPN1, Q8TCX5
MPP2, Q14168 = biological target: T6, MPP2, Q14168
IL16_3, Q14005 = biological target: IL16_3, Q14005
Chain of IL16_3, Q14005 (Q14005 1107-1207): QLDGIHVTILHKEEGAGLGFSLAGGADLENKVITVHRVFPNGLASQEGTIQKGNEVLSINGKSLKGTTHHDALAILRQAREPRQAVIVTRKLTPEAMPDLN

MAGI1_1, Q96QZ7 = biological target: MAGI1_1, Q96QZ7
Chain of MAGI1_1, Q96QZ7 (Q96QZ7 1-106): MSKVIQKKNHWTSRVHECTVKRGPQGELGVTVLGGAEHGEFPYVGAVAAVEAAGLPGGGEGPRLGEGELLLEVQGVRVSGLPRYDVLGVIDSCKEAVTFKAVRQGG

NOS1, P29475 = biological target: NOS1, P29475
Chain of NOS1, P29475 (P29475 9-101): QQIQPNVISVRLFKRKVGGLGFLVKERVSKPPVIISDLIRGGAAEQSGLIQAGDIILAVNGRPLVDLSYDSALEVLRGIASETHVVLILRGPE

SNX27, Q96L92 = biological target: SNX27, Q96L92
DLG3_1, Q92796 = biological target: T7, DLG3_1, Q92796
SYNJ2BP, P57105 = biological target: T8, SYNJ2BP, P57105
HTRA1, Q92743 = biological target: HTRA1, Q92743
Chain of HTRA1, Q92743 (Q92743 360-477): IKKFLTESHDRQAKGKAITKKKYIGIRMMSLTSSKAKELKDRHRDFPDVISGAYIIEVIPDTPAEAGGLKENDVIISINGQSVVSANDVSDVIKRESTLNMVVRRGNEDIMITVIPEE

PICK1, Q9NRD5 = biological target: PICK1, Q9NRD5
Chain of PICK1, Q9NRD5 (Q9NRD5 17-115): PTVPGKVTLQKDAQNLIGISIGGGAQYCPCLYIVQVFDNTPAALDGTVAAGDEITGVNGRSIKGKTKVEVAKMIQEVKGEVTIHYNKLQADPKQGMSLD

AHNAK1, Q09666 = biological target: AHNAK1, Q09666
Chain of AHNAK1, Q09666 (Q09666 4-100): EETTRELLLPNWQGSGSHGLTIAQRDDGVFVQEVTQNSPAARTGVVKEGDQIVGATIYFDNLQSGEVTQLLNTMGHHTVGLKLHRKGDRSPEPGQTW

LNX2_2, Q8N448 = biological target: T9, LNX2_2, Q8N448
Inadl_8, Q8NI35 = biological target: Inadl_8, Q8NI35
Chain of Inadl_8, Q8NI35 (Q8NI35 1425-1530): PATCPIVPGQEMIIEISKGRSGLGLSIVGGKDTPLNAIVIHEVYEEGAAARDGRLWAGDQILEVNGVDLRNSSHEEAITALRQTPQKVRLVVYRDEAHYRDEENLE

GRIP1_3, Q9Y3R0 = biological target: T10, GRIP1_3, Q9Y3R0
DLG3_3, Q92796 = biological target: T11, DLG3_3, Q92796
APBA1_1, Q02410 = biological target: T12, APBA1_1, Q02410

Row | Binder | pKd (GRIP2_4, Q9C0E4) | pKd (GRIP2_5, Q9C0E4) | pKd (APBA1_2, Q02410) | pKd (NHERF3_1, Q5T2W1) | pKd (TIAM2, Q8IVF5) | pKd (PDLIM1, O00151) | pKd (GRID2IP_2, A4D2P6) | pKd (DLG4_1, P78352) | pKd (GRIP1_5, Q9Y3R0) | pKd (FRMPD2_3, Q68DX3) | pKd (RHPN1, Q8TCX5) | pKd (MPP2, Q14168) | pKd (IL16_3, Q14005) | pKd (MAGI1_1, Q96QZ7) | pKd (NOS1, P29475) | pKd (SNX27, Q96L92) | pKd (DLG3_1, Q92796) | pKd (SYNJ2BP, P57105) | pKd (HTRA1, Q92743) | pKd (PICK1, Q9NRD5) | further results
1 | EKKTLIGIKL [GOT1L1, Q8NHS2] | below the threshold | below the threshold | below the threshold | 4.78 | 3.57 | below the threshold | below the threshold | below the threshold | below the threshold | below the threshold | below the threshold | below the threshold | below the threshold | below the threshold | 3.56 | below the threshold | below the threshold | below the threshold | 4.48 | 4.14 | pKd (AHNAK1, Q09666): below the threshold; pKd (LNX2_2, Q8N448): below the threshold; pKd (Inadl_8, Q8NI35): below the threshold; pKd (GRIP1_3, Q9Y3R0): below the threshold; pKd (DLG3_3, Q92796): below the threshold; pKd (APBA1_1, Q02410): below the threshold
2 | IKAIVDLTGL [TRAF2, Q12933] | below the threshold | below the threshold | below the threshold | 4.56 | below the threshold | below the threshold | below the threshold | below the threshold | below the threshold | below the threshold | below the threshold | below the threshold | below the threshold | below the threshold | below the threshold | 3.51 | below the threshold | below the threshold | below the threshold | below the threshold | pKd (AHNAK1, Q09666): below the threshold; pKd (LNX2_2, Q8N448): below the threshold; pKd (Inadl_8, Q8NI35): below the threshold; pKd (GRIP1_3, Q9Y3R0): below the threshold; pKd (DLG3_3, Q92796): below the threshold; pKd (APBA1_1, Q02410): below the threshold
